# Results taken from the supplement of paper PMC9170038.
# System: K4 kissing-loop RNA reporter
# Assay: apparent KD of K4 kissing-loop reporter; higher = weaker reporter binding
# Conditions: Eterna round: R107; input ligand: theophylline 20 uM
# Description: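 RNA-MaP round R107: designed RNA switches with theophylline, tryptophan, arginine or FMN aptamers are transcribed on-chip within common flanks. They are titrated with a labelled K4 kissing-loop RNA reporter in RNA-MaP buffer (100 mM Tris pH 7.5, 80 mM KCl, 4 mM MgCl2), without ligand or with the indicated ligand. Median apparent KD per design.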
# 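Note: bound reporter read as fluorescence of individual clusters on recovered sequencing chips by microscopy, with normalized cluster intensities fitted with a binding model.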
row,Sequence,apparent KD of K4 kissing-loop reporter [µM]
1,UGAUACCAGACGGCCGCCACUCCCGCAGGUCAAAGACCUGCGAAGAAGGUUCUUUAGUGAUGUUGGAGGACCGGGUCUGGUAUCU [FiskerMod 21 - Jieux - Exclusion - Tryptophan B],0.417
2,AAGCCAGAGAUUGCUGCGGGUUCCAGAGAUACCAGCCGUAUUGAAGGCCCUUGGCAGCUCGAGUGAUGUUCGAGCCGUCUCCGGC [Onte],0.116
3,AAAAUAAGCCAGUGAUGUUGGUACCCAGAUACCAGCGACGAAAGUCGCCCUUGGCAGCUGUGGACGUACAAAAUAAGUACGUCCU,0.617
4,AGGUAGUCCCUUGUUGUCAUCGAAGAUGAACGAGGACCGGUACGGCCGCCACUCGGAGUGAUGUUCCGAUGGCUGCAAAAUAAAA [MatMod 23 - Jieux - Exclusion - Tryptophan A],0.0859
5,AAUAAAAUCACGGCCGCCACUGAUUUUUUUAUUAGGAGUGAUGUUCCUAUGACUAUAUUAUUUAACAGGACCGGGUGAAUAUUUA [JR_SSTryptoB_Sub023],0.0933
6,UAGAGGAGACUCUAAUUCCUUAAGUCCGAAGGAGCGACCCAAUGGUCAGGUAGGUCGCGGACAAUCCUAGUGAUGUUAGGAUCUG [Arg A SS t5a],0.17
7,UAACGCCACUAAGAUACCAGACAUACAGAUCGGAUCUCCUAAAGAGAGUGAUGUUCUCUAGUCCCUUGGCAGCUUCUGGACUCCC [theeternabot_sameState_KL_Theo_B_9],0.396
8,GGCACUUUUGCUUGGAACCGUCAAGCUCUUUAGGAUAUCUGGAAACAGAGAAGGAAAGACCUACAGAGUGAUGUUCUGCGUGCCU,0.183
9,UUAGGAGUGGAAGGAUAUCCUGGUGUGGGUGAUGUUAGUGAUGUUGAAAGUGCAGUGAUGUUGCGCGGAGAAGGUCCGGUGUUGA [BDazzled - #7 - Exc. FMN B],0.256
10,UGAUACCAGACUGAUACCAGCAAGUGAUGUUUGUUGAUCUAAAGCAGUCAAAGACUGCCUUGCCCUUGGCAGCAGUCUGGUAUCU [TheoBX 27 #SwitchBubble #StaticStem],0.354
11,CCUAUCUGUUACGAUACCAGUCAAAGAUAUUUUAUCAAUGCCCUCACCGAGUGAUGUUCGGACCCUUGGCAGCGUCUGGGAUAGG [pnnbmullin],0.119

# Same assay, conditions: Eterna round: R107; input ligand: tryptophan 2.4 mM
row,Sequence,apparent KD of K4 kissing-loop reporter [µM]
1,AGUGUUAGGUUAGAUACCAGCCGUCUAUGGAUAAUCCUCAGACCGCCAGUGAUGUUGGCAGGCCCUUGGCAGCUAACAGAACAGA [Reinonor],0.213
2,CGUAGUUGGGCGGCCGCCACUUGAAAAGCUUUGCCAAAGGCAGAGCUCUAGAGUGAUGUUCUGGCAAGGACCGGGUCCAACUACA [#03 K4 Tryptophan B Same State],0.358
3,CCAUGAGGAUAAGAUGAUAUCAUAACAGAAGGAGCGAGUGAUAACUCAGGUAGGUCGCUGAAUUUAUCGAGUGAUGUUCGAUGAA [Same State Arginine A GF11],0.164
4,UCCUGCAAUCGCCCACGAAAGUGGAUUGAUACCAGAGUCGAAAGACUCCCUUGGCAGCGAGUGAUGUUCGAAGCAGGUAAAUAAA,0.459
5,AACCACUCGUUACAUCACUAUCGAGUGGAACGAGGACCGGUACGGCCGCCACUCGGUAACAAGCAGUGAUGUUGCUUGUAAGAAU [KL-SSTryp-A (BrourdMod)2 #dotplot2 strengthened],0.164
6,AGCAGUGAUGUUGCUCAAUUUACAGGUGAUACCAGAGGUCAGUCUCUCCCUUGGCAGCACUUCAUACGAUGAUGUUUUAUCGGCC [theeternabot_sameState_KL_Theo_A_50],0.313
7,AUGGCACGACUUGCCCACAAUGUCUAUGCCCGAGGACCGGUACGGCCGCCACUCGGAUGCCGUGUCUUAUUAGUGAUGUUGAUAC [theeternabot_sameState_KL_Trp_A_4],0.199
8,CGGAUGUAGUGAUGUUAUAUUAGAUGUAGACGAGGACCGGUACGGCCGCCACUCGUGAUGGCUGCUAGCACGUUUCGAUGUUUGC [ExTryptoA.Cq],0.434
9,UUACGGUCCUCGGCCGCCACUCAUAGUGAUGUUAUGCUGCCUGAAGGCACCGGACCUGGAUAUCAGAGGACCGGGAGGCCAUUCG [theeternabot_exclusion_KL_Trp_B_6],0.544
10,AUUAAUUUCAGAGGAUAUCGUAUUUAUAUUAUAUCUUUCCAUAUUUGCAGUGAUGUUGCAUUAAUUCGAGAAGGCUGAUUUAUAA [JR_Nu_ExcFMNB_Sub024],0.0537
11,GGGCCGCGCGCGGCCGCCACUCAGUGAUGUUGGGUGAGCUUUGCUGUGCGUGCUGUUUCGUGACGGAGGACCGGGCGCGCGGCCU [BDazzled 2],0.215
12,AUGCGCGCGGCGGCCGCCACUCGCAUGAGAGUGAUGUUCUCGCCGGGCCCGGAAGGGCCCGGUGUGAGGACCGGGCCGGGCUGCG [#2 Same State - Tryptophan B Attempt #17 (HarryS)],0.344
13,CAAUGAGUAUAAGAUGAUAUCAUCACAGAAGGAGCGAGUGAUAACUCAGGUAGGUCGCUGAAUUUAUCGAGUGAUGUUCGAUAGA [whbob_SS_Arginine_A_sa118],0.17
14,AGACUACUGAUAGGAUAUAACAUACUAGCUCGUAUACCAAAGGUAUACGAGCACCUUCUAGUGAUGUUAGAAGGGUCGGUAGUCA [Omei KL FMN B Exc B v3],0.117
15,GCGUGCAAGUCAUGAUGCCCUAUCAGGACUAAGGAUAUAGCGUGACCUAGAAGGUAGCUAGUGAUGUUGGCUGACAUGCUACUGC [theeternabot_exclusion_KL_FMN_A_49],0.376
16,ACACGCAACUAUAGACCAGUGAUGUUGGAACGAGGACCGGUACGGCCGCCACUCGAGCGGACGAUCUACGCCUCUUAUGCUAACG [theeternabot_exclusion_KL_Trp_A_15],0.35
